Laboratory results as given in article PMC5843810, “18th European Symposium on Radiopharmacy and Radiopharmaceuticals” (EJNMMI Radiopharmacy and Chemistry, 2016).
Primed or numbered codes have the meaning given here. Side-chain parts run from the residue outwards. [ ]: non-standard residue; d: D form. PEG7′ = not defined here; Pra = C#CC[C@H](N)C(=O)O; Tz = not defined here

T1: αvβ3 integrin receptors on tumor cells, P06756
T1 chain 1: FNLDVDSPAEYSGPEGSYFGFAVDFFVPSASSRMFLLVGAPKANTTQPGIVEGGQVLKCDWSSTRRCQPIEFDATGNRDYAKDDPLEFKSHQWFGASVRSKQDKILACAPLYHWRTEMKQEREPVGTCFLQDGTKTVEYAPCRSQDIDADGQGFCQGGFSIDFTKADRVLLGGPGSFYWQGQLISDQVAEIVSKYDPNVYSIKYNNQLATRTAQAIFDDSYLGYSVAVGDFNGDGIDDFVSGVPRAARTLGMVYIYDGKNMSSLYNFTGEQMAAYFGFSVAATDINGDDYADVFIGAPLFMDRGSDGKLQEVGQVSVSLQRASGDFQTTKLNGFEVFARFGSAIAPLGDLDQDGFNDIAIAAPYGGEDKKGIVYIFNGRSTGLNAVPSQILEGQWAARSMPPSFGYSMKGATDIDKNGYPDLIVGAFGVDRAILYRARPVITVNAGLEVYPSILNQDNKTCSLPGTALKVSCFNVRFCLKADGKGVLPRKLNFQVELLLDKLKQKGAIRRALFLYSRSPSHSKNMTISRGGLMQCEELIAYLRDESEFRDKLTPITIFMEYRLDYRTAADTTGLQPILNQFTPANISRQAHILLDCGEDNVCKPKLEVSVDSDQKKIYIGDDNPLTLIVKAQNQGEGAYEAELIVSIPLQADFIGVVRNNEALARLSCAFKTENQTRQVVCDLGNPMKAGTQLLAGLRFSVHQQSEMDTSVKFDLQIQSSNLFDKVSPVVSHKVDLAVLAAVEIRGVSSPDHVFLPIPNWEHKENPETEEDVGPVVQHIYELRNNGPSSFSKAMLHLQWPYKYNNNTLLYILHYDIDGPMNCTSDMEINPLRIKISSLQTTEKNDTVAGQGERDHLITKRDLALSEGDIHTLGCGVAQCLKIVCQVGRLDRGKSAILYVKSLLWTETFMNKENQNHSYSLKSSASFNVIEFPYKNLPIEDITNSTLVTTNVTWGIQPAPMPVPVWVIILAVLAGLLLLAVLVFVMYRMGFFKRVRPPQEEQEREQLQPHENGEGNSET
T1 chain 2: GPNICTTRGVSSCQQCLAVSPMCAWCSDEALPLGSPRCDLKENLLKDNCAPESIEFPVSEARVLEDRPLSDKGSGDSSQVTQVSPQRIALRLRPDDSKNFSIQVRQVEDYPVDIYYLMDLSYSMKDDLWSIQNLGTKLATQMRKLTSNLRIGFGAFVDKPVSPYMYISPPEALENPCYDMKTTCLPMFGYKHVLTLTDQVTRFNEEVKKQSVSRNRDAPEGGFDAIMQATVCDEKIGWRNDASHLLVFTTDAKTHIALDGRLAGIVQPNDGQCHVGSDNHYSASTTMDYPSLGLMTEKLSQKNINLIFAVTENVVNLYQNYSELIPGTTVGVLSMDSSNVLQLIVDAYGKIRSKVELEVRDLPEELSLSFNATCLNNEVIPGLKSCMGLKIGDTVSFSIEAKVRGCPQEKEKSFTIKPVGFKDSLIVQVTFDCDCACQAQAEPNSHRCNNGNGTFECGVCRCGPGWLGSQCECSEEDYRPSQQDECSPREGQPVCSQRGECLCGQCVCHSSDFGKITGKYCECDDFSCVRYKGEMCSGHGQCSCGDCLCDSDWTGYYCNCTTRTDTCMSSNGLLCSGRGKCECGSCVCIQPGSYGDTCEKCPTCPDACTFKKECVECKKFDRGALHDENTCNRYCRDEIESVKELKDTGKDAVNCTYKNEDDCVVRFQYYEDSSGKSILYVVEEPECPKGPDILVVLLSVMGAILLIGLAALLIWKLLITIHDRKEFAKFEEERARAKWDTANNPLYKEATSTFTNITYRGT


Key:
[1] = molecular target: T1, αvβ3 integrin receptors on tumor cells, …; experiment: real-time quantification of cell binding with Ligand Tracer; 68Ga-labelled cyclo-RGD peptides on tumor cells (AR42J and U87MG named); conditions: remark: other sources report otherwise
[2] = molecular target: RGD-recognising integrin receptors
[3] = molecular target: RGD-recognising integrins; experiment: standard binding assay on cells (IC50); U-87 MG and SKOV-3 cancer models; the competing ligand is not named
[4] = molecular target: integrin αvβ3 receptor of αvβ3-positive melanoma tumors in C57BL/6 mice (UniProt P43406)

IC50 [3] [µM] | tumor uptake in C57BL/6 mice bearing αvβ3-positive melanoma tumors, maximum at 30 min p.i. (30, 60, 180 min); reduced to 50-60% by cold cRGDfK peptide [4] [%ID/g] | Binder | also measured
 |  | cyclo(RGD[dF]K) (also: two c(RGDfK) copies on a Glu core, DOTA chelator, 68Ga label) [68Ga-DOTA-E-[c(RGDfK)2]] | retention on cells [1]: < 58%
3.08 |  | cyclo(RGD[dF]K) (also: cysteine-modified, cysteine site not given here, FPyPEGCBT condensed with that cysteine, 18F in the tracer) [FPyPEGCBT-c(RGDfK)] | tumour uptake 1 h after injection in mice bearing subcutaneous SKOV-3 tumours [2]: 2.4 %ID/g; tumour uptake 1 h after injection in mice bearing subcutaneous U-87 MG tumours [2]: 2.9 %ID/g
 | 3.01 | cyclo(RGD[dF]K) (not fully specified (residue 5); also: 99mTc(CO)3 complex) [99mTc(CO)3-Pra-Tz-CH2-cRGDfK] | 
0.6 |  | cyclo(RGD[dF]V) [control c(RGDfV) peptide] | 
 | 4.11 | cyclo(RGD[dF]K([PEG7′-Tz-Pra])) (reading uncertain; also: 99mTc(CO)3 complex) [99mTc(CO)3-Pra-Tz-PEG7-cRGDfK] | 
